Patent publication US10640563B2, “Anti-B7-H3 antibodies and antibody drug conjugates” (AbbVie Inc., priority 2016, dated 2020)

What was measured:
[1] = molecular target: T1, soluble ECD of human B7-H3 (Homo sapiens, UniProt Q5ZPR3); test: Biacore T200 SPR binding kinetics, mAb capture; settings: Biacore T200, Fc capture of mAb, B7-H3 ECD as analyte, 1:1 binding model
T1 construct: His tag (6xHis) (C); made in house
T1 sequence (Q5ZPR3 with tags, fused parts or gaps): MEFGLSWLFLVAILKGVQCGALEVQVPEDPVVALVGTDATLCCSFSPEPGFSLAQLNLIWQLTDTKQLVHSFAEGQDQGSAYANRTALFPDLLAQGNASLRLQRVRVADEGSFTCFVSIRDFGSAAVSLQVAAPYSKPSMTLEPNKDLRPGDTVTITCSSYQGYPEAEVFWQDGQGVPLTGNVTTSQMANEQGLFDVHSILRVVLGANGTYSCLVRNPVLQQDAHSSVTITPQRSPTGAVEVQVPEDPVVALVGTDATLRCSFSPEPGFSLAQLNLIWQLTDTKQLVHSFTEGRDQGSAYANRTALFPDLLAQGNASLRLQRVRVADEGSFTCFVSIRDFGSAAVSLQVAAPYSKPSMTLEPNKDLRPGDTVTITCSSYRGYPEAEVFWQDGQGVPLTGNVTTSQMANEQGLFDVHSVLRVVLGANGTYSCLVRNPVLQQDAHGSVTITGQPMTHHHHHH
Experimental: The binding affinity of the purified anti-B7-H3 monoclonal antibodies was determined by surface […]. […] The binding kinetics were derived from SPR measurements using a Biacore T200 instrument and a mAb capture approach (as described in the materials and methods below).
Biacore T200 SPR instruments were used to measure the binding kinetics of human B7-H3 (analyte) binding to various mAbs (ligands). The assay format was Fc-based capture via immobilized anti-mouse (Fc) (Pierce 31170) or immobilized anti-human (Fc) (Pierce 31125). A standard amine coupling protocol was employed to immobilize the capture reagents via primary amines to the carboxy-methyl (CM) dextran surface of CM5 sensorchips (Biacore); capture antibodies were coupled to a level of approximately 5000 RU. For binding kinetic measurements the assay buffer was HBS-EP+ (Biacore): 10 mM Hepes, pH7.4, 150 mM NaCl, 3 mM EDTA, 0.05% polysorbate 20. During the assay, all measurements were referenced against the capture surface alone. Each assay cycle consisted of the following steps: 1) Capture of ligand to approximately 50 RU; 2) Analyte injection over both reference and test surface, 240 μL at 80 μL/min, after which the dissociation was monitored for 900 seconds at 80 μL/min; 3) Regeneration of capture surface with low pH glycine. For kinetic determinations analyte injections were 3-point, 9-fold dilution series of 900 nM, 100 nM and 11.11 nM, buffer only injections were included for secondary referencing. Data were processed and fit to a 1:1 binding model using Biacore T200 Evaluation Software to determine the binding kinetic rate constants, ka (on-rate) and kd (off-rate), and the equilibrium dissociation constant (affinity, KD).

[2] = test system: soluble ECD of cyno B7-H3; test: Biacore T200 SPR binding kinetics, mAb capture; design: species or system cynomolgus monkey; settings: Biacore T200, Fc capture of mAb, B7-H3 ECD as analyte, 1:1 binding model
Chain of soluble ECD of cyno B7-H3 (as listed by the source): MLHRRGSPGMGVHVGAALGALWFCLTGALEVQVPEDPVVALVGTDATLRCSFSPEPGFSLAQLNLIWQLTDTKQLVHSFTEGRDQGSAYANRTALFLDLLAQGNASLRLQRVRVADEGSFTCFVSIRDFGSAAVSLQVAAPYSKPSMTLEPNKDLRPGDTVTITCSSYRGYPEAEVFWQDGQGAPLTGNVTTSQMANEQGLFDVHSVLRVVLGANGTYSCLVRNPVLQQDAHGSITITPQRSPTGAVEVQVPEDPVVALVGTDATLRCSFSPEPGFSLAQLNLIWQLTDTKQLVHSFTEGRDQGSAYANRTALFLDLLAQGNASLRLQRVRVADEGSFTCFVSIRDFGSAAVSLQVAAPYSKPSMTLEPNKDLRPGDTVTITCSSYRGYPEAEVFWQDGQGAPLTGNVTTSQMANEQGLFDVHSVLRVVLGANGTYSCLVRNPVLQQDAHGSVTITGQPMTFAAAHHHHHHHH

[3] = molecular target: T2, B7-H3 (Homo sapiens, UniProt Q5ZPR3); test: Pair-wise SPR binding assay for epitope grouping; settings: simultaneous binding assay, 12° C.
T2 construct: His tag (6xHis) (C); made in house
T2 sequence (Q5ZPR3 with tags, fused parts or gaps): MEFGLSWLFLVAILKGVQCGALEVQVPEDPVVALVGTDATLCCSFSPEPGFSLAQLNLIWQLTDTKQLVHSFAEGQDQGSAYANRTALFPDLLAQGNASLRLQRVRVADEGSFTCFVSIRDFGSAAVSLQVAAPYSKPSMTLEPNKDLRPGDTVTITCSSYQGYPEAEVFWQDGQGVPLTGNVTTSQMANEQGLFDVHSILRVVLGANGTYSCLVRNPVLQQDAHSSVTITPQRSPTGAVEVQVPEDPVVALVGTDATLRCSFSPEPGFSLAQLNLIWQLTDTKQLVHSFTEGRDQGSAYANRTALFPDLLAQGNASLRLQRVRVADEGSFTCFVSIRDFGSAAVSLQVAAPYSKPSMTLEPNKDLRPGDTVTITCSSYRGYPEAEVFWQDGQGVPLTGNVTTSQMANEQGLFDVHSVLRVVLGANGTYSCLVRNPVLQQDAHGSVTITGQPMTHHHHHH
Excerpt: Pair-wise binding assays performed on Biacore T200 SPR instruments were used to determine the relative epitope grouping for the murine anti-B7-H3 mAbs as described in the methods below. […] Epitope groups are represented as individual ovals, some of which overlap with each other. Antibodies in different epitope groups can bind to B7-H3 simultaneously and likely bind to different epitopes while antibodies within a given epitope group cannot bind to B7-H3 simultaneously and likely bind to overlapping epitopes. The grouping information was derived from a simultaneous binding assay as described in materials and methods. Ab3, Ab4, Ab5, Abl 1, Ab12, and Ab8 groupings were ambiguous.
Pair-wise binding assays performed on Biacore T200 SPR instruments were used to determine the relative epitope grouping for a series of anti-B7-H3 mAbs. The assay format was Fc-based capture via immobilized anti-mouse(Fc) (Pierce 31170) or immobilized anti-human (Fc) (Pierce 31125). A standard amine coupling protocol was employed to immobilize the capture reagents via primary amines to the carboxy-methyl (CM) dextran surface of CM5 sensorchips (Biacore); capture antibodies were coupled to a level of approximately 2000 RU. Epitope grouping measurements were done at 12° C. (low temperature allows for grouping information on fast off-rate mAbs), the assay buffer was HBS-EP+(Biacore): 10 mM Hepes, pH7.4, 150 mM NaCl, 3 mM EDTA, 0.05% polysorbate 20. Each assay cycle consisted of the following steps in a four flowcell system: 1) separate test mAbs were captured in flowcells 2, 3 & 4 (flowcell 1 was reference, no test mAb); 2) all 4 flowcells were then blocked by injection with isotype control mAb or isotype mAb cocktail at 50 μg/mL; 3) all 4 flowcells were then injected with antigen or buffer only (buffer only is for double referencing, done for each mAb pair individually); 4) all 4 flowcells were then injected with 2nd test mAb at 10 μg/mL; 5) all 4 flowcells were then regenerated with glycine, pH1.5. The assay was done for each test mAb pair in reciprocal orientations. Simultaneous binding was evaluated examining the ratio of the 2nd test mAb response to the Ag response (RUmAb2/RUAg); if this ratio was equal to or greater than 0.2 the interaction was scored as a simultaneous binder. From this pair-wise binding assay data a “venn” style diagram was constructed manually to depict relative epitope groupings.

[4] = molecular target: T3, mouse B7-H3 (Mus musculus, UniProt Q8VE98); test: FACS binding to mouse 3T12 fibroblasts expressing mouse B7-H3; settings: purified mouse hybridoma mAb; cells expressing mouse B7-H3
T3 construct: expressed in transfected cells; host or cells: mouse 3T12 fibroblasts
T3 sequence (Q8VE98 29-316): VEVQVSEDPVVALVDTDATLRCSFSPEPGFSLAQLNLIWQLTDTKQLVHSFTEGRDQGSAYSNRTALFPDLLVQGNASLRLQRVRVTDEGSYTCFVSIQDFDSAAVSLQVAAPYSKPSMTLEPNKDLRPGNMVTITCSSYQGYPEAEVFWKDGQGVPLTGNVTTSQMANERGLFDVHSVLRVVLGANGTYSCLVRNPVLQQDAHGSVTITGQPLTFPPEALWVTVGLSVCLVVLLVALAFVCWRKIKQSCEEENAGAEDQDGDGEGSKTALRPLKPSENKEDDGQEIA

[5] = test system: HCC38 cell line; test: Cell cytotoxicity of ADCs in HCC38 cell line; format: cell-based; settings: Table 14; CZ conjugates
Method in brief: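 Humanized anti-B7-H3 antibody (chAb18) variants conjugated to the Bcl-xL inhibitor synthon CZ and tested as ADCs for cytotoxicity in HCC38 cells.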

[6] = test system: H847 cells; test: Cell cytotoxicity of ADCs in H847 cells; format: cell-based; settings: Table 17; CZ conjugates; read-out: Cytotoxicity (H847 Cell line IC50)
Excerpt: These new anti-B7-H3 antibodies were further characterized for binding by SPR and conjugated to the Bcl-xLi synthon CZ and assessed for cell cytotoxicity (using the methods described in Example 7).

[7] = test system: NCI-H146 cells; test: In vivo xenograft model of small cell lung cancer (NCI-H146); design: species or system mice; settings: 6 mg/kg/IP/QDx1
[8] = Aggregation of conjugates by SEC; format: physicochemical
[9] = molecular target: T2, B7-H3; test: Affinity of naked mAbs by SPR (Biacore); format: binding; settings: Table 17
Experimental: The parental chAb18 from which the variants were derived was also tested as a comparator.

[10] = Table 17, CZ conjugates of huAb3v2 variants

B1: Ab8: murine anti-B7-H3 mAb (mouse hybridoma derived) (antibody, V domains shown)
VH: EVKLVESGGGLVKPGGSLKLSCAASGFTFSSYGMSWVRQTPEKRLEWVATISGGGNYTYCPDSVKGRFTISRDNAKNNLYLQMSSLRSEDTALYYCTRQRGYDYHYAMDFWGQGTSVTVSS
VL: DIQMTQSPASLSVSVGETVTITCRASENIYSNLAWHQQKQGKSPQLLVYAATNLADGVPSRFSGNGSDTQYSLKINSLQSEDFGSYFCQNFWGTSWTFGGGTKLEIK
For B1, the “huB7-H3 ka” value [1] was 58000 M⁻¹ s⁻¹, the “huB7-H3 kd” value [1] was 9.9e-05 s⁻¹ and the “cynoB7-H3 ka” value [2] was 160000 M⁻¹ s⁻¹. For the same molecule, the “cynoB7-H3 kd” value [2] was 0.00026 s⁻¹ and the “relative human B7-H3 epitope grouping” value [3] was “ambiguous”.

B2: Ab6 (antibody, V domains shown)
VH: QVQLQQSGAELMKPGASVKISCKATGYTFSRYWIEWVKQRPGHGLEWIGEILPGSGSTNYNEKFKGKATFTADTSSNTAYMQVSSLTSEDSAVHYCARRGYGYVPYALDYWGQGTSVTVSS
VL: EIQMTQTTSSLSASLGDRVTISCRASQDISNSLNWYQQKPDGTVNLLIYYTSRLYSGVPSRFSGSGSGTDYSLTISNLEQEDIATYFCQQGNTLPYTFGGGTKLEIK
For B2, the “FACS Binding (EC50 nM) Mouse B7-H3” value [4] was “No binding”, the “huB7-H3 ka” value [1] was 12000 M⁻¹ s⁻¹ and the “huB7-H3 kd” value [1] was 0.01 s⁻¹. The “cynoB7-H3 ka” value [2] was 28000 M⁻¹ s⁻¹ and the “cynoB7-H3 kd” value [2] was 0.012 s⁻¹.

B3: Ab18: murine monoclonal Ab18 (antibody, V domains shown)
VH: QVQLQQSAAELARPGASVKMSCKASGYSFTSYTIHWVKQRPGQGLEWIGYINPNSRNTDYNQKFKDETTLTADRSSSTAYMQLISLTSEDSAVYYCARYSGSTPYWYFDVWGAGTTVTVSS
VL: QIVLTQSPAILSASPGEKVTMTCRASSSVSYMNWYQQKPGSSPKPWIYATSNLASGVPARFSVSVSGTSHSLTISRVEAEDAATYYCQQWSSNPLTFGAGTKLELK
In the case of B3, the “FACS Binding (EC50 nM) Mouse B7-H3” value [4] is reported as “No binding”, the “huB7-H3 ka” value [1] is reported as 210000 M⁻¹ s⁻¹ and the “huB7-H3 kd” value [1] is reported as 3.6e-05 s⁻¹. The “cynoB7-H3 ka” value [2] was 240000 M⁻¹ s⁻¹ and the “cynoB7-H3 kd” value [2] was 2.9e-05 s⁻¹.

B4: huAb3v2-CZ (conjugate)
VH: EVQLVQSGAEVKKPGSSVKVSCKASGYTFSSYWMHWVRQAPGQGLEWIGLIHPDSGSTNYNEMFKNRATLTVDRSTSTAYMELSSLRSEDTAVYYCAGGGRLYFDYWGQGTTVTVSS
VL: DIVMTQSPLSLPVTPGEPASISCRSSQSLVHSNGDTYLRWYLQKPGQSPQLLIYKVSNRFSGVPDRFSGSGSGTDFTLKISRVEAEDVGVYYCSQSTHVPYTFGGGTKVEIK
For B4, the IC50 [5] was 0.13 nM, the IC50 [6] was 1.49 nM and the “TGD (%)” value ([7]; Table 15) was 52%. The “TGImax (%)” value ([7]; Table 15) was 83% and the “% agg by SEC” value ([8]; Table 14, CZ conjugates of Ab3 variants) was 10.1%.

B5: huAb3v2.2-CZ (conjugate)
VH: EVQLVQSGAEVKKPGSSVKVSCKASGYTFSSYWMHWVRQAPGQGLEWIGLIHPWSGSTNYNEMFKNRATLTVDRSTSTAYMELSSLRSEDTAVYYCAGGGRLYFDYWGQGTTVTVSS
VL: DIVMTQSPLSLPVTPGEPASISCRSSQSLVHSNRDTYLRWYLQKPGQSPQLLIYKVSNRFSGVPDRFSGSGSGTDFTLKISRVEAEDVGVYYCSQSTHVPYTFGGGTKVEIK
For B5, the “Affinity of naked mAbs (Biacore, KD)” value [9] was “Poor fit”, the IC50 [6] was 26.7 nM and the “% agg by SEC” value [8, 10] was 1.8%.

B6: huAb3v2.3-CZ (conjugate)
VH: EVQLVQSGAEVKKPGSSVKVSCKASGYTFSSYWMHWVRQAPGQGLEWIGLIHPWSGSTNYNEMFKNRATLTVDRSTSTAYMELSSLRSEDTAVYYCAGGGRLYFDYWGQGTTVTVSS
VL: DIVMTQSPLSLPVTPGEPASISCRSSQSLVHSNQDTYLRWYLQKPGQSPQLLIYKVSNRFSGVPDRFSGSGSGTDFTLKISRVEAEDVGVYYCSQSTHVPYTFGGGTKVEIK
In the case of B6, the “Affinity of naked mAbs (Biacore, KD)” value [9] is reported as “Poor fit” and the “% agg by SEC” value [8, 10] is reported as 1.5%.

B7: huAb3v2.8-CZ (conjugate)
VH: EVQLVQSGAEVKKPGSSVKVSCKASGYTFSSYWMHWVRQAPGQGLEWIGLIHPISGSTNYNEMFKNRATLTVDRSTSTAYMELSSLRSEDTAVYYCAGGGRLYFDYWGQGTTVTVSS
VL: DIVMTQSPLSLPVTPGEPASISCRSSQSLVHSNRDTYLRWYLQKPGQSPQLLIYKVSNRFSGVPDRFSGSGSGTDFTLKISRVEAEDVGVYYCSQSTHVPYTFGGGTKVEIK
In the case of B7, the “Affinity of naked mAbs (Biacore, KD)” value [9] is reported as “Poor fit”, the IC50 [6] is reported as 2.36 nM and the “% agg by SEC” value [8, 10] is reported as 5.7%.

B8: huAb3v2.9-CZ (conjugate)
VH: EVQLVQSGAEVKKPGSSVKVSCKASGYTFSSYWMHWVRQAPGQGLEWIGLIHPISGSTNYNEMFKNRATLTVDRSTSTAYMELSSLRSEDTAVYYCAGGGRLYFDYWGQGTTVTVSS
VL: DIVMTQSPLSLPVTPGEPASISCRSSQSLVHSNQDTYLRWYLQKPGQSPQLLIYKVSNRFSGVPDRFSGSGSGTDFTLKISRVEAEDVGVYYCSQSTHVPYTFGGGTKVEIK
With B8 the “Affinity of naked mAbs (Biacore, KD)” value [9] was “Poor fit”, the IC50 [6] was 2.3 nM and the “TGD (%)” value ([7]; Table 23) was 135%. The “TGImax (%)” value ([7]; Table 23) was 94% and the “% agg by SEC” value [8, 10] was 4.3%.
